Test results published in patent US20240408249A1 (NATIONAL RESEARCH COUNCIL OF CANADA, published 2024).

Experiments:
[1] = biological target: T1, EGFRvIII (epidermal growth factor receptor variant III) over-expressed on the U87-EGFRvIII glioblastoma cell … (human, UniProt P00533 298-623); assay: radioligand saturation binding on U87-EGFRvIII cells, 2 h on ice, gamma counting, one-site non-linear fit
T1 construct: The assay used cells over-expressing EGFRvIII (whole receptor on cells); EGFRvIII is its in-frame deletion of exons 2-7; also called de2-7EGFR; ΔEGFR
Description: (§1) 1. Cell lysate buffer was prepared using PBS with 1% Triton X-100 [0448] 2. Cell binding buffer was prepared using PBS with 0.5% BSA
(§2) This study followed the procedures described below: [0450] 1. Cell preparation: [0451] a. Harvest attached cells: recover sufficient, U87-EGFRvIII cells from T225 flasks using trypsin/EDTA and transfer to a 50 ml culture tube. Dispense a 50 μl sample of resuspended cells into an Eppendorf micro-tube and dilute with 50 μl of trypan blue. Fill a hemocytometer (10 μl) chamber and count the number of cells present. [0452] i. Count cells in four quadrants of the counting area. [0453] ii. Calculate cells/mL: count/4 quadrants×dilution factor×10⁴=cells/mL. [0454] b. Resuspend cells in medium to a final concentration of 3×10⁵ cells/ml. [0455] c. Plate 3×10⁵/1 mL U87-EGFRvIII into designated well of the 24-well plates and gently tap to evenly distribute cells (total 6 plates prepared-4 U87-EGFRvIII, 2 blanks) [0456] d. Incubate plates overnight at 37° C. and 5% CO₂. [0457] 2. Binding assay: [0458] Blocking agent was prepared as follows: 4500 μl as concentration of 4 μM; Final concentration of blocker 2 μM. [0459] For Conjugate A [0460] stock=7.58 mg/mL [0461] mg/ml=52.64 μM, add 342 μl [0462] Binding buffer: 4158 μl [0463] For Conjugate B [0464] stock=6.7 mg/mL [0465] mg/ml=46.53 μM, add 387 μl [0466] Binding buffer: 4113 μl [0467] a. Remove medium from two plates [0468] b. […]

[2] = biological target: T1, EGFRvIII (epidermal growth factor …); assay: saturation binding of the 177Lu-labelled conjugate on U87-EGFRvIII cells, 2 h on ice, gamma counting; specific binding curve
Description: as §1, §2

| Kd [1] [nM] | EC50 (read off the curve) [2] [nM] | Binder |
| --- | --- | --- |
| 6.78 | – | Conjugate A ([177Lu]-Compound C-anti-EGFRvIII conjugate prepared from EGFRvIII antibody hH2-hL3) (antibody, V domains shown, [177Lu]-Compound C (DOTA chelate with PEG3 linker) conjugated to the antibody; attachment residues not stated; typical chelate to antibody ratios (CARs) of 3-4, Radioimmunoconjugate as tested; also called [177Lu]-DOTA-anti-EGFRvIII; humanized variant of anti-EGFRvIII antibody 4E11) VH: QVQLQESGPGLVKPSQTLSLTCTVSGYSITSDYAWNWIRQPPGKGLEWIGYIGYNGRTSYNPSLKSRVTISRDTSKNQFSLKLSSVTAADTAVYYCARLGRGFAYWGQGTLVTVSS VL: DIQMTQSPSSLSASVGDRVTITCHASQGINSNIGWLQQKPGKAFKGLIYHGTNLEDGVPSRFSGSGSGTDYTLTISSLQPEDFATYYCVQYAQFPYTFGQGTKLEIKR |
| 2.75 | ~3 | Conjugate B ([177Lu]-Compound C-anti-EGFRvIII conjugate prepared from EGFRvIII antibody hH3-hL1) (antibody, V domains shown, [177Lu]-Compound C (DOTA chelate with PEG3 linker) conjugated to the antibody; attachment residues not stated; typical chelate to antibody ratios (CARs) of 3-4, Radioimmunoconjugate as tested; also called [177Lu]-DOTA-anti-EGFRvIII; humanized variant of anti-EGFRvIII antibody 4E11) VH: QVQLQESGPGLVKPSQTLSLTCTVSGYSITSDYAWNWIRQPPGKGLEWMGYIGYNGRTSYNPSLKSRITISRDTSKNQFSLKLSSVTAADTAVYYCARLGRGFAYWGQGTLVTVSS VL: DIQMTQSPSSLSASVGDRVTITCHASQGINSNIGWYQQKPGKAPKLLIYHGTNLEDGVPSRFSGSGSGTDYTLTISSLQPEDFATYYCVQYAQFPYTFGQGTKLEIKR |
